Measured values as given in patent publication EP4257134A2 (Immunomedics, Inc., dated 2023).

Legend:
CD22 (human) [1] = target: CD22 (human) (UniProt P20273); test: flow cytometry with the unconjugated specific antibody, FITC goat anti-human IgG; WSU-FSCCL cells (background 4.9)
CD22 (human) [2] = target: CD22 (human) (UniProt P20273); test: flow cytometry with the unconjugated specific antibody, FITC goat anti-human IgG; MN-60 cells (background 5.8)
CD22 (human) [3] = target: CD22 (human) (UniProt P20273); test: flow cytometry with the unconjugated specific antibody, FITC goat anti-human IgG; Ramos cells (background 4.1)
CD22 (human) [4] = target: CD22 (human) (UniProt P20273); test: flow cytometry with the unconjugated specific antibody, FITC goat anti-human IgG; Daudi cells (background 5.9)
CD22 (human) [5] = target: CD22 (human) (UniProt P20273); test: flow cytometry with the unconjugated specific antibody, FITC goat anti-human IgG; REH cells (background 4.1)
CD22 (human) [6] = target: CD22 (human) (UniProt P20273); test: flow cytometry with the unconjugated specific antibody, FITC goat anti-human IgG; Raji cells (background 6.8)
CD22 (human) [7] = target: CD22 (human) (UniProt P20273); test: flow cytometry with the unconjugated specific antibody, FITC goat anti-human IgG; Jeko-1 cells (background 6.5)
CD22 (human) [8] = target: CD22 (human) (UniProt P20273); test: flow cytometry with the unconjugated specific antibody, FITC goat anti-human IgG; RS4;11 cells (background 4.1)
CD22 (human) [9] = target: CD22 (human) (UniProt P20273); test: flow cytometry with the unconjugated specific antibody, FITC goat anti-human IgG; 697 cells (background 4.2)
[10] = target: CD74 (invariant chain, Ii) (human) (UniProt P04233); test: flow cytometry, surface only; Hep-G2 cells
[11] = target: CD74 (invariant chain, Ii) (human) (UniProt P04233); test: flow cytometry, surface and cytoplasmic (permeabilized cells); HuH-7 (background 4)
[12] = target: CD74 (invariant chain, Ii) (human) (UniProt P04233); test: flow cytometry, surface only; Raji cells
[13] = target: CD74 (invariant chain, Ii) (human) (UniProt P04233); test: flow cytometry, surface and cytoplasmic (permeabilized cells); Hs746T
[14] = target: CD74 (invariant chain, Ii) (human) (UniProt P04233); test: flow cytometry, surface only; A-375 cells
[15] = target: CD74 (invariant chain, Ii) (human) (UniProt P04233); test: flow cytometry, surface only; Capan-1 cells
[16] = target: CD74 (invariant chain, Ii) (human) (UniProt P04233); test: flow cytometry, surface only; Hs746T cells (background 8, GAH-FITC only)
[17] = target: CD74 (invariant chain, Ii) (human) (UniProt P04233); test: flow cytometry, surface and cytoplasmic (permeabilized cells); A-375
[18] = target: CD74 (invariant chain, Ii) (human) (UniProt P04233); test: flow cytometry, surface only; HuH-7 cells (background 5, GAH-FITC only)
[19] = target: CD74 (invariant chain, Ii) (human) (UniProt P04233); test: flow cytometry, surface only; NCI-N87 cells (background 4, GAH-FITC only)
[20] = target: CD74 (invariant chain, Ii) (human) (UniProt P04233); test: flow cytometry, surface and cytoplasmic (permeabilized cells); Capan-1
[21] = target: CD74 (invariant chain, Ii) (human) (UniProt P04233); test: flow cytometry, surface and cytoplasmic (permeabilized cells); Raji
[22] = target: CD74 (invariant chain, Ii) (human) (UniProt P04233); test: flow cytometry, surface and cytoplasmic (permeabilized cells); Hs746T (background 5)
[23] = target: CD74 (invariant chain, Ii) (human) (UniProt P04233); test: flow cytometry, surface and cytoplasmic (permeabilized cells); A-375 (background 6)
[24] = target: CD74 (invariant chain, Ii) (human) (UniProt P04233); test: flow cytometry, surface and cytoplasmic (permeabilized cells); NCI-N87
[25] = target: CD74 (invariant chain, Ii) (human) (UniProt P04233); test: flow cytometry, surface only; NCI-N87 cells
[26] = target: CD74 (invariant chain, Ii) (human) (UniProt P04233); test: cell binding to antigen-positive cells (cell line not given)
[27] = target: CD74 (invariant chain, Ii) (human) (UniProt P04233); test: flow cytometry, surface and cytoplasmic (permeabilized cells); NCI-N87 (background 6)
[28] = target: CD74 (invariant chain, Ii) (human) (UniProt P04233); test: flow cytometry, surface and cytoplasmic (permeabilized cells); Hep-G2 (background 5)
[29] = target: CD74 (invariant chain, Ii) (human) (UniProt P04233); test: flow cytometry, surface and cytoplasmic (permeabilized cells); HuH-7
[30] = target: CD74 (invariant chain, Ii) (human) (UniProt P04233); test: flow cytometry, surface only; Raji cells (background 3, GAH-FITC only)
[31] = target: CD74 (invariant chain, Ii) (human) (UniProt P04233); test: flow cytometry, surface only; HuH-7 cells
[32] = target: CD74 (invariant chain, Ii) (human) (UniProt P04233); test: flow cytometry, surface and cytoplasmic (permeabilized cells); Capan-1 (background 5)
[33] = target: CD74 (invariant chain, Ii) (human) (UniProt P04233); test: flow cytometry, surface and cytoplasmic (permeabilized cells); Hep-G2
[34] = target: CD74 (invariant chain, Ii) (human) (UniProt P04233); test: flow cytometry, surface only; A-375 cells (background 3, GAH-FITC only)
[35] = target: CD74 (invariant chain, Ii) (human) (UniProt P04233); test: flow cytometry, surface only; Capan-1 cells (background 12, GAH-FITC only)
[36] = target: CD74 (invariant chain, Ii) (human) (UniProt P04233); test: flow cytometry, surface and cytoplasmic (permeabilized cells); Raji (background 5)
[37] = target: CD74 (invariant chain, Ii) (human) (UniProt P04233); test: flow cytometry, surface only; Hep-G2 cells (background 6, GAH-FITC only)
[38] = target: CD74 (invariant chain, Ii) (human) (UniProt P04233); test: flow cytometry, surface only; Hs746T cells
CD20 (human) [39] = target: CD20 (human) (UniProt P11836); test: flow cytometry with the unconjugated specific antibody, FITC goat anti-human IgG; WSU-FSCCL cells (background 4.9)
CD20 (human) [40] = target: CD20 (human) (UniProt P11836); test: flow cytometry with the unconjugated specific antibody, FITC goat anti-human IgG; MN-60 cells (background 5.8)
CD20 (human) [41] = target: CD20 (human) (UniProt P11836); test: flow cytometry with the unconjugated specific antibody, FITC goat anti-human IgG; Ramos cells (background 4.1)
CD20 (human) [42] = target: CD20 (human) (UniProt P11836); test: flow cytometry with the unconjugated specific antibody, FITC goat anti-human IgG; Daudi cells (background 5.9)
CD20 (human) [43] = target: CD20 (human) (UniProt P11836); test: flow cytometry with the unconjugated specific antibody, FITC goat anti-human IgG; REH cells (background 4.1)
CD20 (human) [44] = target: CD20 (human) (UniProt P11836); test: flow cytometry with the unconjugated specific antibody, FITC goat anti-human IgG; Raji cells (background 6.8)
CD20 (human) [45] = target: CD20 (human) (UniProt P11836); test: flow cytometry with the unconjugated specific antibody, FITC goat anti-human IgG; Jeko-1 cells (background 6.5)
CD20 (human) [46] = target: CD20 (human) (UniProt P11836); test: flow cytometry with the unconjugated specific antibody, FITC goat anti-human IgG; RS4;11 cells (background 4.1)
CD20 (human) [47] = target: CD20 (human) (UniProt P11836); test: flow cytometry with the unconjugated specific antibody, FITC goat anti-human IgG; 697 cells (background 4.2)
CEACAM6 (human) [48] = target: CEACAM6 (human) (UniProt P40199); test: flow cytometry; Hep-G2 cells
CEACAM6 (human) [49] = target: CEACAM6 (human) (UniProt P40199); test: flow cytometry, surface; NCI-N87 cells (staining antibody not given)
CEACAM6 (human) [50] = target: CEACAM6 (human) (UniProt P40199); test: flow cytometry, surface; HuH-7 cells (staining antibody not given)
[51] = target: Human trophoblast cell-surface antigen (Trop-2) (human) (UniProt P09758); test: cell binding assay on Trop-2-expressing cells
[52] = target: T1, Human trophoblast cell-surface antigen (Trop-2) (human, UniProt P09758 27-323); test: cell-based or functional assay
T1 sequence (looked up): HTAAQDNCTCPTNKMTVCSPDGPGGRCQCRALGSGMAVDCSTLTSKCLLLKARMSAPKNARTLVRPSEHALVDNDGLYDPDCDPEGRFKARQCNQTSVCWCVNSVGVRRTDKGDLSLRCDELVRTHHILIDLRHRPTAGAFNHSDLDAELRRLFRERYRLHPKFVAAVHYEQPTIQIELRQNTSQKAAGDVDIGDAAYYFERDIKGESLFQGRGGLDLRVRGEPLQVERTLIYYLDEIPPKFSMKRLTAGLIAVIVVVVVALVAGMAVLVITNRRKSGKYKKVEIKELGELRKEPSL

Chain of CD74 (invariant chain, Ii) (human) (P04233 whole entry, change not shown): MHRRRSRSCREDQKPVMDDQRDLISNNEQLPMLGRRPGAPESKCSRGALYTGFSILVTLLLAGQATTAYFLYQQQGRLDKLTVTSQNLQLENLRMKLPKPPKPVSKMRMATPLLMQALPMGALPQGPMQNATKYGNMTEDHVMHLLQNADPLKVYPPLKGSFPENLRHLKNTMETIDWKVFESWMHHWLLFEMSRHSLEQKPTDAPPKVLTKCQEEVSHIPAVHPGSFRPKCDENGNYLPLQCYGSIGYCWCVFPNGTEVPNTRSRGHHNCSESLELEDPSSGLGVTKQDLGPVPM
Chain of CD20 (human) (P11836 whole entry): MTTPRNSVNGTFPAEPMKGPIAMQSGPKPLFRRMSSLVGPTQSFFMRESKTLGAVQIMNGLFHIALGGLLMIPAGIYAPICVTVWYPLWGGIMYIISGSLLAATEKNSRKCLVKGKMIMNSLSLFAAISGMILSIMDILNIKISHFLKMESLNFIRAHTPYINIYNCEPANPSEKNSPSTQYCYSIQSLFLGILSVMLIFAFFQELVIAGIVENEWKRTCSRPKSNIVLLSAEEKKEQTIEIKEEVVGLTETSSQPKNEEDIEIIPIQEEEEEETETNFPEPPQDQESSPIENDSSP
Chain of CEACAM6 (human) (P40199 35-320): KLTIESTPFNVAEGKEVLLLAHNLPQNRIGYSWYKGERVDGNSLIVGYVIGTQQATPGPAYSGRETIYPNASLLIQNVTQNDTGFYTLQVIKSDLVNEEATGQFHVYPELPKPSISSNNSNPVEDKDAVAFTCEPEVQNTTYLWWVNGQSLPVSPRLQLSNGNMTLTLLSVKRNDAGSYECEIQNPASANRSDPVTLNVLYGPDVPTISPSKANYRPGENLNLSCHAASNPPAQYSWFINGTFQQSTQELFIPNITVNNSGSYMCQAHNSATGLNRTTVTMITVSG

Which results are given for “Epratuzumab (hLL2, humanized anti-CD22 IgG1, unconjugated) (antibody)”?
Median fluorescence (CD22 (human) [1]): 7.7; Median fluorescence (CD22 (human) [2]): 10.3; Median fluorescence (CD22 (human) [3]): 40.8; Median fluorescence (CD22 (human) [4]): 145; Median fluorescence (CD22 (human) [5]): 22.9; Median fluorescence (CD22 (human) [6]): 45.9; Median fluorescence (CD22 (human) [7]): 11.2; Median fluorescence (CD22 (human) [8]): 23.3; Median fluorescence (CD22 (human) [9]): 16

What does the source list for “Milatuzumab (hLL1, humanized anti-CD74 IgG1, unconjugated) (antibody)”?
MFI Ratio hLL1:bkgd [10]: 1.5; MFI [11]: 114; MFI Ratio hLL1:bkgd [12]: 19.6; MFI Ratio hLL1:bkgd [13]: 28.8; MFI Ratio hLL1:bkgd [14]: 5.3; MFI Ratio hLL1:bkgd [15]: 1.8; MFI [16]: 17; MFI Ratio hLL1:bkgd [17]: 30.8; MFI [18]: 8; MFI [19]: 5; MFI Ratio hLL1:bkgd [20]: 49.6; MFI Ratio hLL1:bkgd [21]: 28.6; MFI [22]: 144; MFI [23]: 185; MFI Ratio hLL1:bkgd [24]: 36.7; MFI Ratio hLL1:bkgd [25]: 1.3; Kd [26]: 0.77 nM; MFI [27]: 220; MFI [28]: 156; MFI Ratio hLL1:bkgd [29]: 28.5; MFI [30]: 59; MFI Ratio hLL1:bkgd [31]: 1.6; MFI [32]: 248; MFI Ratio hLL1:bkgd [33]: 31.2; MFI [34]: 16; MFI [35]: 22; MFI [36]: 143; MFI [37]: 9; MFI Ratio hLL1:bkgd [38]: 2.1

How did the Kd [26] turn out when Milatuzumab-CL2A-SN-38 (antibody) was run?
The Kd was 0.59 nM.

Which Kd [26] does the source give for Milatuzumab-CL2E-SN-38 (antibody) here?
Its Kd is 0.8 nM.

“Veltuzumab (hA20, humanized anti-CD20 IgG1, unconjugated) (antibody)” was tested. Which Median fluorescence (CD20 (human) [39]) did it give?
Its Median fluorescence is 97.4.

And the Median fluorescence (CD20 (human) [40])?
Its Median fluorescence is 21.5.

And the Median fluorescence (CD20 (human) [41])?
Its Median fluorescence is 620.

And the Median fluorescence (CD20 (human) [42])?
The Median fluorescence was 815.

What about the Median fluorescence (CD20 (human) [43]) of the same molecule?
Its Median fluorescence is 12.3.

And the Median fluorescence (CD20 (human) [44])?
The Median fluorescence was 422.

What about the Median fluorescence (CD20 (human) [45]) of the same molecule?
Its Median fluorescence is 605.

What about the Median fluorescence (CD20 (human) [46]) of the same molecule?
Its Median fluorescence is 3.7.

What about the Median fluorescence (CD20 (human) [47]) of the same molecule?
The Median fluorescence was 6.9.

Which MFI (CEACAM6 (human) [48]) does the source give for “hMN-15 (humanized anti-CEACAM6 IgG1, unconjugated) (antibody)” here?
The MFI was 175.

And the MFI (CEACAM6 (human) [49])?
The MFI was 1120.

What about the MFI (CEACAM6 (human) [50]) of the same molecule?
Its MFI is 81.

Which Kd [51] does the source give for hRS7-CL2A-SN-38 (antibody) here?
The Kd was 1.2 nM.

B1: hRS7-CL2-SN-38 (antibody, INN chains, looked up, V domains shown, part only)
VH: QVQLQQSGSELKKPGASVKVSCKASGYTFTNYGMNWVKQAPGQGLKWMGWINTYTGEPTYTDDFKGRFAFSLDTSVSTAYLQISSLKADDTAVYFCARGGFGSSYWYFDVWGQGSLVTVSS
VL: DIQLTQSPSSLSASVGDRVSITCKASQDVSIAVAWYQQKPGKAPKLLIYSASYRYTGVPDRFSGSGSGTDFTLTISSLQPEDFAVYYCQQHYITPLTFGAGTKVEIK
modifications: SN-38 via CL2 linker
B1 was tested. Which Kd [51] did it give?
Its Kd is 1.2 nM.

B2: hRS7 IgG (humanized RS7 anti-Trop-2 antibody, unconjugated) (antibody, V domains shown)
VH: B1 VH
VL: DIQLTQSPSSLSASVGDRVSITCKASQDVSIAVAWYQQKPGKAPKLLIYSASYRYTGVPDRFSGSGSGTDFTLTISSLQPEDFAVYYCQQHYITPLTFGAGTKVEIKR
Which “ADCC, specific lysis of BxPC-3 target cells by PBMCs (effector to target ratio 100:1; antibody at 33.3 nM)” value [52] does the source give for B2 here?
The value was 8.5%.
